We go through one substance from US5453371.

The target of the assay is 4-phenylazo-benzyloxycarbonyl-L-Pro-Leu-Gly-L-Pro-D-Arg.HCl.

Take “Achromobacter collagenase gene product of Vibrio alginolyticus produced in recombinant Escherichia coli JM109 (plasmid pHUC14 or pLCO-1) (enzyme)”: the Collagenase activity came out at 189 U.
